According to US8603949B2, “Libraries of optimized cytochrome P450 enzymes and the optimized P450 enzymes” (California Institute of Technology, priority 2003, dated 2013):
“Also recorded” adds a separate entry of the source.

What was measured:
[1] = Thermostability (loss of Soret band at increasing temperatures); format: physicochemical; settings: cell extracts heated 10 minutes
Procedure, shortened: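 Cell extracts heated 10 minutes at a range of temperatures, cooled to 4° C and centrifuged to remove precipitate. Remaining P450 quantified by carbon monoxide reduced difference spectroscopy, following loss of the CO/Soret peak with temperature.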

[2] = Peroxidase activity with ABTS and H2O2; format: biochemical; settings: for peroxidase activity relative to parents: ABTS; for Peroxidase activity: 10 mM ABTS, 20 mM H2O2, pH 5.0, activities <0.2 not detectable (N.D.)
Procedure, shortened: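 Initial peroxidase rates from ABTS radical cation accumulation at 414 nm: 1 μM enzyme, 10 mM ABTS, 200 mM phosphate pH 5.0, room temperature, started with H2O2 to 20 mM. Monitored 5 min; rate from steepest part of time course using ε 36,000 […].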

[3] = Peroxygenase activity, hydroxylation of 12-pNCA; format: biochemical; settings: 250 μM 12-pNCA
Method: (§1) The chimeras were assayed for hydroxylation of p-nitrophenoxydodecanoic acid (12-pNCA), a fatty acid analog that is hydroxylated by CYP102A1 and CYP102A2 to yield p-nitrophenolate (Schwaneberg et al., Anal Biochem 269,359-366 (1999)). […] When hydroxylation rates for the parent CYP102 enzymes were monitored using the maximum soluble concentrations of these substrates, activity could only be detected on 2-phenoxy-ethanol.
This Example provides one method by which peroxygenase activity of a P450 enzyme may be characterized. First order rates for p-nitrophenolate accumulation were determined using 1 μM enzyme, 20 mM H2O2, 250 μM 12-pNCA and 0.5% dimethyl sulfoxide (DMSO) in 100 mM Tris-HCl (pH 8.2) at room temperature. Enzyme, substrate, buffer and DMSO were combined in a cuvette and zeroed at 410 nm. Reaction mixtures were incubated for 4 minutes and initiated by the addition of H2O2 to a final concentration of 20 mM. Initial rates were determined by monitoring the accumulation of p-nitrophenolate at 410 nm, and data from the first six seconds were used to determine initial rates. […] The extinction coefficient of p-nitrophenolate is 13,200 M^−1cm^−1 (Schwaneberg et al., Anal Biochem 269:359-366 (1999)).

[4] = Peroxygenase activity on 2-phenoxy-ethanol (4-AAP assay); format: biochemical; settings: 100 mM substrate
Method: as §1
(§2) Rates on 2-phenoxy-ethanol and allyloxy-benzene were determined using 2 μM enzyme, 20 mM H2O2, 1% DMSO, and 1% acetone in 100 mM N-[2-hydroxyethyl]piperazine-N′-[3-propanesulfonic acid] (Epps) (pH 8.2) at room temperature. Substrate concentrations for 2-phenoxy-ethanol (100 mM) and allyloxy benzene (50 mM) maintained saturation. Reactions were initiated by the addition of H2O2 and quenched at appropriate times using an equal volume of a solution containing 4M urea and 100 mM NaOH. 120 μl of 0.6% 4-AAP was added, followed by mixing and addition of 120 μl of 0.6% potassium persulfate. Color was allowed to develop for 20 minutes before absorbance was read at 500 nm. Rates were determined from the linear region of the time course. The major products were determined by GC/MS to be the hemiacetal, which decomposes to phenol. The extinction coefficient for the 4-AAP/phenol complex was determined to be 4,800 M^−1cm^−1. The results can be seen in FIG. 4.

[5] = Peroxygenase activity on allyloxy-benzene (4-AAP assay); format: biochemical; settings: 50 mM substrate
Method: as §1, §2

[6] = Peroxygenase substrate activity profile; format: biochemical; settings: 20 mM H2O2
Procedure, shortened: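 Peroxygenase rates were measured with H2O2 (20 mM) at room temperature and pH 8.2. For 12-pNCA (250 μM), 1 μM enzyme in Tris buffer was used, with initial p-nitrophenolate formation read at 410 nm over the first 6 s. For 2-phenoxy-ethanol (100 mM) and allyloxy-benzene (50 mM), 2 μM enzyme in EPPS buffer was used, reactions were quenched, phenol was detected by 4-AAP at 500 nm, and rates are in nmol product/nmol P450/min.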

[7] = Library plate screen, activity on 12-pNCA; format: biochemical; settings: seven-crossover library, cell lysate
Method: These library plates were replicated and grown in 96 deep-well plates in 900 μL of LB media with 100 μg/ml ampicillin overnight at 30° C. and 250 rpm. 150 μL of this was then transferred to 850 μL of induction media (TB-media with final concentrations of 100 μg/ml ampicillin, 25 μg/ml thiamine, 0.5 mM δ-aminolevulinic acid and 0.6 mM IPTG). These were grown for 20-24 hours at 25° C. and 190 rpm, harvested by centrifugation at 5000×g for 8 minutes and frozen at −20° C. for at least 24 hours. Cells were resuspended using a pipetting robot (Multimek 96, Beckman) and lysed in 400 μL of Epps or Tris buffer (100 mM, pH 8.2) containing 0.8 mg/ml lysozyme and 2 units/mL DNaseI for 1 hour at 37° C. Plates were then spun for 8 minutes at 5000×g and 4° C. to pellet cell debris. 80 μL of lysate was transferred into 4 separate 96 well plates for each library plate. […] On one plate, high -throughput carbon monoxide spectroscopy was done in order to assess relative amounts of P450 (Otey, C. R. High-throughput carbon monoxide binding assay for cytochromes P450. In Directed Enzyme Evolution: Screening and Selection Methods, F. H. Arnold and G. Georgiou, eds. (Totowa, N.J.: Humana Press) pp. 137-139 (2003)) with 0.1 M sodium hydrosulfite being used in place of 0.4 M. The other three plates were used to assay activity on different substrates. […]

[8] = Li et al. 2001; read-out: KM for 12-pNCA; cited from earlier work

| Molecule | Tm [1] | peroxidase activity relative to parents [2] | peroxygenase activity on 12-pNCA [3] | peroxygenase activity on 2-phenoxy-ethanol [4] | peroxygenase activity on allyloxy-benzene [5] | substrate activity profile relative to parents [6] | Peroxidase activity [2] | activity for 12-pNCA compared to parent P450s [7] | Km [8] |
| --- | --- | --- | --- | --- | --- | --- | --- | --- | --- |
| Chimera 191-335: CYP102A1 heme domain with residues 191-335 from CYP102A2 (protein, Chimeric Cytochrome P450 heme group sequence from Bacillus megaterium and Bacillus subtilis, CYP102A1 heme domain with residues 191-335 from CYP102A2) TIKEMPQPKTFGELKNLPLLNTDKPVQALMKIADELGEIFKFEAPGRVTRYLSSQRLIKEACDESRFDKNLSQALKFVRDFAGDGLATSWTHEKNWKKAHNILLPSFSQQAMKGYHAMMVDIAVQLVQKWERLNADEHIEVPEDMTRLTLDTIGLCGFNYRFNSFYRDQPHPFITSMVRALDEAMNKLQRLDVQDKLMVRTKRQFRYDIQTMFSLVDSIIAERRANGDQDEKDLLARMLNVEDPETGEKLDDENIRFQIITFLIAGHETTSGLLSFATYFLLKHPDKLKKAYEEVDRVLTDAAPTYKQVLELTYIRMILNESLRLWPTAPAFSLYPKEDTVLGGEYPLEKGDELMVLIPQLHRDKTIWGDDVEEFRPERFENPSAIPQHAFKPFGNGQRACIGQQFALHEATLVLGMMLKHFDFEDHTNYELDIKETLTLKPEGFVVKAKSKKIPLGGIPSPST | 40 °C | no detectable peroxidase activity | not | detectable activity | detectable activity | new activity; also recorded: gained novel activity | – | – | – |
| Chimera 43-135: CYP102A1 heme domain with residues 43-135 from CYP102A2 (protein, Chimeric Cytochrome P450 heme group sequence from Bacillus megaterium and Bacillus subtilis, CYP102A1 heme domain with residues 43-135 from CYP102A2) TIKEMPQPKTFGELKNLPLLNTDKPVQALMKIADELGEIFKFHTPAGTTIVVSGHELVKEVCDEERFDKSIEGALEKVRAFSGDGLATSWTHEPNWRKAHNILMPTFSQRAMKDYHEKMVDIAVQLIQKWARLNPDEHIEVPEDMTRLTLDTIGLCGFNYRFNSFYRDQPHPFITSMVRALDEAMNKLQRANPDDPAYDENKRQFQEDIKVMNDLVDKIIADRKASGEQSDDLLTHMLNGKDPETGEPLDDENIRYQIITFLIAGHETTSGLLSFALYFLVKNPHVLQKAAEEAARVLVDPVPSYKQVKQLKYVGMVLNEALRLWPTAPAFSLYAKEDTVLGGEYPLEKGDELMVLIPQLHRDKTIWGDDVEEFRPERFENPSAIPQHAFKPFGNGQRACIGQQFALHEATLVLGMMLKHFDFEDHTNYELDIKETLTLKPEGFVVKAKSKKIPLGGIPSPST | 53 °C | – | not | detectable activity | highest rates; also recorded: detectable activity | new activity; also recorded: gained novel activity | 6.8 nmol product/nmol P450/min | – | – |
| Chimera F3791: chimera of the CYP102A1/A2/A3 seven-crossover library (protein, Chimeric Cytochrome P450 heme group polypeptide sequence from CYP102A1 (Bacillus megaterium); CYP102A2 (Bacillus subtilis) and CYP102A3 (Bacillus subtilis), chimera of the CYP102A1/A2/A3 seven-crossover library) KETSPIPQPKTFGPLGNLPLIDKDKPTLSLIKLAEEQGPIFQIHTPAGTTIVVSGHELVKEVCDESRFDKNLSQALKFVRDFAGDGLATSWTHEKNWKKAHNILLPSFSQQAMKGYHAMMVDIAVQLIQKWARLNPNEAVDVPGDMTRLTLDTIGLCGFNYRFNSYYRDSQHPFITSMLRALKEAMNQSKRLGLQDKMMVKTKLQFQKDIEVMNSLVDKIIADRKASGEQSDDLLTHMLNGKDPETGEPLDDENIRYQIITFLIAGHETTSGLLSFATYFLLKHPDKLKKAYEEVDRVLTDAAPTYKQVLELTYIRMILNESLRLWPTAPAFSLYAKEDTVLGGEYPISKGQPVTVLIPKLHRDQNAWGPDAEDFRPERFEDPSSIPHHAYKPFGNGQRACIGMQFALQEATMVLGLVLKHFELINHTGYELKIKEALTIKPDDFKITVKPRKTAAINVQRKEQA | – | – | – | – | – | – | – | superior activity | – |
| CYP102A1: parent P450 heme domain from Bacillus megaterium, with the F87A mutation (protein, listed as Bacillus megaterium) TIKEMPQPKTFGELKNLPLLNTDKPVQALMKIADELGEIFKFEAPGRVTRYLSSQRLIKEACDESRFDKNLSQALKFVRDFAGDGLATSWTHEKNWKKAHNILLPSFSQQAMKGYHAMMVDIAVQLVQKWERLNADEHIEVPEDMTRLTLDTIGLCGFNYRFNSFYRDQPHPFITSMVRALDEAMNKLQRANPDDPAYDENKRQFQEDIKVMNDLVDKIIADRKASGEQSDDLLTHMLNGKDPETGEPLDDENIRYQIITFLIAGHETTSGLLSFALYFLVKNPHVLQKAAEEAARVLVDPVPSYKQVKQLKYVGMVLNEALRLWPTAPAFSLYAKEDTVLGGEYPLEKGDELMVLIPQLHRDKTIWGDDVEEFRPERFENPSAIPQHAFKPFGNGQRACIGQQFALHEATLVLGMMLKHFDFEDHTNYELDIKETLTLKPEGFVVKAKSKKIPLGGIPSPST | 55 °C | low, but detectable peroxidase activity | – | – | – | – | 2.6 nmol product/nmol P450/min | – | 8.1 µM |
